Residue numbers refer to the chain shown, from its start.
B1: CW6B238 (antibody, V domains shown)
VH: QVTLKESGPVLVKPTETLTLTCTVSGFSLNNARMGVSWIRQPPGKALEWLAHMFSSDEKFYRTSLKSRLTISKDTSKSQVVLTMTNMDPVDTATYYCARISLYSSGHDTFDLWGQGTMVTVSS
VL: AIQMTQSPSSLSASVGDRVTITCRASQDIRNTLGWYQQKPGKAPNLLIYAASSLQSGVPSRFSGSGSGTDFTLTISSLQPEDFATYYCLQDYDYPLTFGGGTKVEIK
B2: CW6B237 (antibody, V domains shown)
VH: B1 VH with N30S, M53I, S56H, R62S, S64F, T83M, S101I, Y103S, T109A, L112I
VL: B1 VL with N31H, T32N, T72I, Y86F, Y87F, D93I
B3: CW6B130 (antibody, V domains shown)
VH: QLQLQESGPGLVKPSETLSLTCTVSGASISSINYYWGWIRQPPGKGLEWIGSFYYSGNTYYNPSLKSRVTISVDTSKNYFSLKLNSVTAADTAVYYCAREYYDSSGYYPFEPWGQGTLVTVSS
VL: SYVLTQPPSVSVAPGQTARITCGGDNIGSESVHWYQQKPGQAPVLVVYDDTDRPSGIPERFSGSKSGTTATLTISWVEAGDEADYYCQVWDSSSDHVVFGGGTKLTVL
B4: CW6B175 (antibody, V domains shown)
VH: EVQLVESGGGLVQPGGSLRLSCAASGFTFTNYWMTWVRQAPGKGLEWVANIKQSGSEKYYVDSVKGRFTISRDNAKNSLYLQMNSLRAEDTAVYYCARTLYEWELEPFDYWGQGTLVTVSS
VL: B3 VL with D25N, N26R, E30K, Y48F, T51S, K65N, T68I, W76R, S94N
B5: CW6B188 (antibody, V domains shown)
VH: B4 VH with S56N
VL: B3 VL with D25N, N26R, E30K, S31N, V32L, T51S, K65N, T68S, W76R, S94R
B6: CW6B228 (antibody, V domains shown)
VH: QVQLQESGPGLVKPSETLSLTCTVSGNSIRSYYWSWIRQPAGKGLEWIGRIYISGNTNYNPSLKSRVTMSIDTSKNQFSLKLSSVTAADTAVYYCARLSGIDAFDIWGQGTMVTVSS
VL: DIQMTQSPSSLSASVGDRVTITCQASQDINNYLNWYQQKPGKAPKLLIYDASSLETGVPSRFSGSGSGTDFTFTISSLQPEDFATYYCQQYDDLPITFGQGTRLEIK
B7: CW6B229 (antibody, V domains shown)
VH: B6 VH with Y93F
VL: B6 VL with N30S, S53N, D93N
B8: CW6B230 (antibody, V domains shown)
VH: B6 VH with R30S, S31N, S54T, I71L
VL: B6 VL with S10T, I21F, N30T, N31K, S53N
B9: CW6B233 (antibody, V domains shown)
VH: B6 VH
VL: B6 VL with N30T, S53N, D93N

Biological target: T1, HLA-Cw6/ADAMTSL5-Abu on rhHLA-Cw6 expressing cells loaded with ADAM-Abu peptide (human), P10321
Assay: cell-based or functional assay

In order of rising IL-2 % Inhibition (8.5 nM mAb), HLA-Cw6-00290:
1. B2  59%
2. B1  86%
3. B7  86%
4. B9  91%
5. B8  93%
6. B4  96%
7. B3  100%
8. B6  100%

In order of rising IL-2 % Inhibition (8.5 nM mAb), HLA-Cw6-00254:
1. B5  9%
2. B4  85%
3. B3  100%

Biological target: T1, HLA-Cw6/ADAMTSL5-Abu on rhHLA-Cw6 …
Assay: not given

In order of rising IC50 (read off the curve):
1. B3  0.03 µg/mL
2. B1  0.2 µg/mL
3. B4  0.2 µg/mL
4. B7  0.2 µg/mL
5. B8  0.2 µg/mL
6. B9  0.2 µg/mL

Source: patent publication US20200317791A1
